Several values for one entry are separate records, joined by “and”; a condition that tells them apart may be missing. Equal values may be shown once.
What was measured:
[1] = target: serum thymidine kinase 1 (sTK1), dog (dog (endogenous in serum)); assay: SEC; CMT serum (dog No. 23) on Superose 12 (FPLC), 0.01 M HEPES pH 7.6, 0.15 M NH4Cl, 0.02% NaN3; fractions tested for TK1 activity and by immunoaffinity/Western blot
[2] = target: cellular thymidine kinase 1 (TK1), dog (dog (endogenous in ALL cells and mammary tumor tissue)); assay: SEC; CMT tissue extract (dog No. 23) on Superose 12 (FPLC), 0.01 M HEPES pH 7.6, 0.15 M NH4Cl, 0.02% NaN3; fractions tested for TK1 activity and by immunoaffinity/Western blot
[3] = target: cellular thymidine kinase 1 (TK1), dog (dog (endogenous in ALL cells and mammary tumor tissue)); assay: SEC; ALL cell extract on Superose 12 (FPLC), 0.01 M HEPES pH 7.6, 0.15 M NH4Cl, 0.02% NaN3; fractions tested for TK1 activity and by immunoaffinity/Western blot

For “serum thymidine kinase 1 (sTK1), dog (enzyme)”, the stoichiometry N [1] was 2 and 4.

“cellular thymidine kinase 1 (TK1), dog (enzyme)” gave a stoichiometry N [2] of 4 and a stoichiometry N [3] of 2.

— PMC4195903
